This data set in a line: label from the status in PepcDB records.

The results in this text go back to a protein production outcome set (Wang et al. 2014).

On to “MRIHRLDIEAFGPFATPQHIDFDHLSAQGLFLLNGATGAGKTSILDAICFALYGSVPGARQEGKRLRSDHAAPGAEPRVVCEFSARGRRFEVTRSPAWDRPSARGRNGFTTQQAKTLLRERVAGSWEEKSSRNDEVGAELSDVLGMDREQFTRVVMLPQGDFAAFLRSKANDRLELLQKLFGTQRFEAVERQLVHQAAEAARAVQENASELKLLLDRVASEQDQLGLPAADTSAAGTEPGQEPEAWLAGVEAEVEAEWKRRQNEAAEAESLSSRLMEHFQEAQEKSQRHGRLGAAMQRRVLLELAAPRALENKEMLGKHRRAAVLSGQLEAVDSAARKLHTASARAAGLREKLDAAGLDAAKPTIALETVKASCAVLEARLPEEQRLEGITVRLAARRGELAEHLSAAEAAATVVDQLREEVSAVELEIQPLEPLADQLAEREREATAAAELVGIVARHATAASELDVITGKHLHARSASQDLRQKWLDVRELRLANAAGELAAALESGKPCAVCGSEEHPNPAQAVRTALSLAQEEEEARERFEASERALGLLAEQVSSAAQVLAGLVAQGGSADAAAAESTLADARAAALAARTAEASLEKLRVRHEALIKRIVLAQEEHDASVGAAAQASAAVHVLQEQCVALETDLAGLRGDFSSLRDRLEALEAERGLLQAAVDADRELERAEQARQDAAASLDKALSESGFASADDARREILSPADVVGLEKDLADFDAESSRLDELFGSEDLVLAAKEASIGEHPLGEAELAESKLHAANAADDARAKALSAGLAGKSAAAVARFRTEYQSLAQAGREPRNRAQMLAELADTVRGSGDNSYRMSLNAYVLAARLEQVATAASERLVAMSDGRYTLQHTDAKAARGAKSGLGLEVVDEWTGQRRDTSTLSGGESFMASLSLALGLADVVQQEAGGVDIETLFVDEGFGSLDDQALEQVMDALEGLRDGGRVVGLVSHVGEMKQRITNQLQVVKGRHGSSVRIAEAGPV”, for which the protein production result is on record as “failed”. As for “MRIHSPYPASWALAQRIGYLYSEGEIIYLADTPFERLLDIQRQVGQCQTMTSLSQADFEARLEAVFHQNTGESQQIAQDIDQSVDLLSLSEEMPANEDLLNEDSAAPVIRLINAILSEAIKETASDIHIETYEKTMSIRFRIDGVLRTILQPNKKLAALLISRIKVMARLDIAEKRIPQDGRISLRIGRRNIDVRVSTLPSIYGERAVLRLLDKNSLQLSLNNLGMTAADKQDLENLIQLPHGIILVTGPTGSGKSTTLYAILSALNTPGRNILTVEDPVEYELEGIGQTQVNTRVDMSFARGLRAILRQDPDVVMVGEIRDTETAQIAVQASLTGHLVLSTLHTNSASGAVTRLRDMGVESFLLSSSLAGIIAQRLVRRLCPQCRQFTPVSPQQAQMFKYHQLAVTTIGTPVGCPHCHQSGYQGRMAIHEMMVVTPELRAAIHENVDEQALERLVRQQHKALIKNGLQKVISGDTSWDEVMRVASATLESEA”, the protein production entry is on record as “failed”. With “MRIIFKIIAFLSFFAFLSGCGAGLTAFSKGERLEREGKLDEAVIKYSEAVASNPEMNEYRMRLLKTSEEAALRHLSKGDEFIALKNYDAALVEYQAAVALDPSLQRAKQESDKLVRQKNSRTYFKEGQDFERGNKPREALQAYRKALDLDGQNKEAKEALERLLSTKKTRLEGYELNLKSTKPITLKFKDANLKDVFYIVTQLSGINFIFDDTIKDQKVTIYLENANFQQALDLLTNMNKLGKKVLNESTILIFPKTPEKSKQYEDLVVKTFFLNTLDAKKAVNLLRTMLQVRKVYVNEELNAIVVRDTSELVDVAGKILEANDVPDAEVLLDVEVIEVSKRNIENFGLALSKYAVSLNTQTPGGGFLNDTFSRASVSSSTGTTIQGTAGSELLQTFSWNGYSGFMTVPSASYSFGKSITNAEVLANPKIRVKNREKSKFTVGTRVPITTTSTTGTTGGFSVNVQYVDVGVKLNAEPTIMLNNEVSIKLGLEVSSIIDKQTVGGTDSATTVVTIGTRNLDTVLNLKDGETSVIGGLIEDNKQKGKQKIFLLGDIPIIGPLLSNNSNDNQKRELILAITPRLVRSVTVPEPDLVSFWSGKEDDPSVVKPFASFELEPEFAIGQPKTVKQPAASPAPVPASVSAPAQRVAPLQPVPGSPAPTAAPQTTTSPEVKQSAAPAPGQQPAPPSTAQSQAVAPLPVPASPAAPAATVAAASAVPVAAAPAPAVRGSLNISAPAAVNLGSQFKVEIRVSDVKGLLKAPFVLIYDPIFIDYVGAVEGTFLNRDGKPTSFNAQVDKAKGRVTITLARTGAEGIDGAGSLLTATFTAKNKGPASLGLQSVNFTDQANKPIDVVPYNTVVEVK”, the protein production entry is “failed”. Turning to “MRILAIVKRIVNQFRRDKRTLALMFLAPLLLITLLTYLFEGDTVKPVVGVNGLSSSMVKELKENDLTIKTYPDNTNATAKIKDADLDAFFQQDGEKIKVTYENSEPSLSKEIGLKLQKALMAEQQVQVKKQAKTTGEALAKAGIDPNSLPALTNSPEKLTISTDYVYGDKDTSFFDTISPIFIGFFVFFFVFLIAGISFLRERTTGTLERLMATPIKRIELELGYLIGFGIFALLQSILVAVFSIQVLGMMQNGSLFYVLLITLTLGMVSLALGILLSTFANNEFQIVQFIPIVIVPQVLFCGIFPLDGMADWLVWIAHIMPLYYGANALTSIMVKGEGFASFANDFYILLGFVIIFVVLNIFALKKYRKV”, the protein production result was “failed”. On to “MRILLVGAGGFVGRHLLPALLAAGHELLLTARRPPVDAPAGVRWLALDLERLAERPDSFAWPAGVDLLINAAGTMSLDEASMARVQDSGARTLFDLAAAHGAKVLQISALGAGAHPDVAFLASKAAADRHLLELGIPALVLRPSLLLGPGGASSAWLERLSPLPLIPLLDNRARLQPLHVEDLVGAVLALLRCWPERAQVIPLVGPQALTQGELLDELRRAQGWPRGRYVVPPAALLDALGGLGRRAGWRTLSPSMLKLVRHDNLADPALLDEACGYRCAPLASRLLGWPQAARSLAALMRPLMLAALVLIWLGTLVACLGPGYGWGLRILGEAGIHGWPASLAVIAGALLDGALGVGLLLRRWRRRALLAQFWLMLGYSLAISLILPHYWYDPYMAVGKNIVLMVATLWLLGDEPRTREARG”, for which the protein production entry is recorded as “failed”.

With “MRITASLRTFCHLSTPHSDSTTSRLWIDEVTAVARQRDRDSFMRIYDHFAPRLLRYLTGLNVPEGQAEELVQEVLLKLWHKAESFDPSKASLGTWLFRIARNLYIDSVRKDRGWVQVQNSLEQLERLEAPVDRTLDYSQRQEQQLNSAIQNLPTDQAKVLRMSYFEALSHREISERLDMPLGTVKSCLRLAFQKLRSRIEES”, the protein production entry is recorded as “failed”. With “MRITLVTDSTSDLPQDLRGRLGVRVVPLYVNLSGAIYRDWEEITPTEIFQKVREGAAFPTTSQPSPEDFARVYREALEEADHVLSLHISGKLSGTVQSAELAAQEFPGRVTVVDTQAASLGVGMMVLRAKELLEEGQSLEAVLAELERLRRDHFVRFSVATLEFLKRGGRIGGAQAFLGTLLNLKPVLTLKEGRVEAAGRARGEKKAREEILKAFRAWAEGRKRIRAYFLYSGDEDAVAALRQEVLASGLPVEEALVNELGAVIASHTGPGTYGFYAYSL”, the protein production entry is given as “not failed”. For “MRITRIMKTAKTARTTTSTRTSGARQAAAPLIKFSLFALVTMVATTLLAATIVNISLTPEHTYRAVFSDVTGLEKGDDIRVAGVRVGQVEGIRIKDRTLAEVTFTVGEDRPLLNSTGAVVRYRNLVGQRYVALTEGAGDATRLKPGATIPLSRTQPALDLNALLNGFKPLFAALSPQDVNQLATEIIRTLQGEGGTVNSLLAHTASLTTTLAGRDKLIGSVIDNLNTVLETLDQRGARFSGLLKQLRRVISGLSADRKPIGQSLVGIGDLTDATSGLLKDARPPLKDDIAELTDLTGTLNKNENTVEGVLKRLPNKLGELTGTASYGSWFNFYLCDFDGRIVLPKTKQVLTPELHVARARCGA”, the protein production result was “failed”. With “MRIVIVGGSKFGVATAEQLIDKGHEVVLIDKNREKLEALTDRLDCGMIQGDGSSPKVLREAYAEENDVLVALTNASDDNILTALVARSVGFGRVIPQIVEAELLDVCVELDLKDTITPHVTVARSICRALEEDTELARDTNLTGDLRLLRLSVTSQLSGCSLSELDLPDECRAVAIVHEDREKFADPDAVVSEGEDILFAVHEDRVADLKALFATS” the entry was “failed”; with “MRIVSRDRWFETRHFYNGISLIHEPYVRPFYRCNMWHVQGRERDVLVDSGSGLVSLCEQLPWLTERPLLAVASHTHFDHIAGHHEFAERLAHPAEAEILAAPDGDNTLARAYVGDEMFEAHPECPLCYAEYRVRAAPATRLIDEGDVLDLGDRVLQVLHTPGHSPGGISLWEAATQTLFSGDIVYDGPLVEDAYHSNLDDYASSLARLRELPVRTVHGGHFASFSGERLREMIVAWFRNHDR”, “failed”; with “MRKARGKAAKGGRAVTGDPIGDAAVLSALFANSPQGLFVFDSEQKVTRYNPAGRGVRGLPEEDVVGQGIADFVPGFEAVELQGLIDEVLATGEALRGRLVRGRAPSGPHRTLAVEVSLFPLRDLGDGKPGLVGVVEDVTE”, “failed”. Take “MRKGQETRERVVAQAAALFNVSGYAGTAISDIMAATGLEKGGIYRHFESKEQLALAAFDYAAEKVRERFAVGLAGHKHTVDTIIAFLDVFRSYAERPPLVGGCPILNTAIESDDTNPMLRERVRAVIDEWRETIRTLVQTGIARGEIRPEVDADRLALLIIATMEGAVMLARILETATPLEHAYTHLATYITQQVRLA”: the protein production result is recorded as “not failed”.

For the sequence “MRKLLSVIVSLMTAMAFAQQPVELPLWPDGAPNSNGLTGGEKEVSPHRLSNVTAPTITVYRAPQPNGMAVIMCPGGGYSRLAMDHEGHDMASWFCGQGITYVVLKYRMPNGHCEVPLSDAERAIRIVREHAGEWNIHPRKIGIMGASAGGHLASTLATHYSAASRPDFQILLYPVVTMTQSTHGGSRKELLGGNPTAEQEVLFSNELQVTSDTPQAFIVLSSDDGAVPPSNGVNYYLALQKNNVPASLHVYPTGGHGWGFRDNFKYKQQWTQELEKWLREGVVFPKETAPMLRIGKTYLGTKYVANTLDQGTEEKLVILPQTVDCLTFVEYTLAQAMGSSFADNLQKIRYRDGVIDGYTSRLHYTSDWIENGVRQGFLEDVTAQNSTQTTKLSLSYMSTHPQKYRQLADSPENVKRMAEHEKALSGKKVHWLPKGKLPDAGLPWIMDGDIIAITTNLPGLDVAHVGMAEYINGKLHLLHASSTLGKVVVSEEPLSQMLRNNKSWSGIRVVRMSHP”, the protein production entry is recorded as “failed”. Take “MRKLNNHDVHKRYQDRLEEDVEFTINYELPLSCLWSTIKDFSSDFEEKTEAFFILFKELLRRGHLKLQRDGQIIGHTPEEWEQIFREVWPEYEIEPNPLPGYAPFDIGMWLTVEAPAYAVWIDPEDGSEYWAG”: the protein production entry was “not failed”. For the sequence “MRKMTGEEFDPLVSFFDGMAQASWLRPVHDRLKKGTGSWANRAVLDVGCGTGRLLARGVHEAAHLAGVDLSKQMVLATEERLHEHKQCGRLTVVQGDAYDLPFADESFDVCLSTCVMFLLPEPERGMKEMIRVLNGAGVIGMLNPTNKMNHAAAKAYCKKSGITGFEEKTLLQWSNVSTRRHRYTAEQLTHFFKQHGAWVVTHELVLDGLAVVTVASWNKLEHHHHHH”, the protein production entry is listed as “not failed”. With “MRKNEYVNLPVICLVGPTASGKSGLAVRVCRRLYVDEHPAEIINTDSMVVYRGMDIGTATPTLREQRTVVHHLVSILDVTVPSSLVLMQTLARDAVEDCLSRGVIPVLVGGSALYTKAIIDEMSIPPTDPEVRARWQEKLDAEGPRVLHDELARRDPKAAESILPGNGRRIVRALEVIDLTGSFTATIPDGTLHWPKTVQMGLELSRKDIDQRIADRVDQMWAYGFVDEVRSLANVGLREGLTASRALGYRQVLEYLNGDYDEDEARRRTIIGTRRFARKQLMWYRRDDRIEWFNALAPDLDDRVVARVLTALTTDEED” the entry was “failed”.
